Laboratory results reported in US20220110851A1 (SKINMED, published 2022).
No end group written: not given here.

Target: acetylcholine receptor on AchR-overexpressed TE671 cells
Test: cell-based or functional assay

Binder | IC50 value for AchR (AchR inhibitory effect in TE671 cells) | AchR inhibition, TE671 cells, 400 µM nicotine | AchR inhibitory rate, TE671 cells, 400 µM nicotine, 20 µM peptide | inhibitory ability on nicotinic acetylcholine receptors, in multiples compared with Spep-2 | AchR inhibitory effect, Fura-2 fluorescence in TE671 cells after 1 µM acetylcholine
WTWKGRKSLLR (also: palmitoyl conjugated, site not given here) [Palmitoyl-Spep-2] | 75 nM | – | – | – | –
RARKKRKSLLRRQV [L3-27] | – | 100% | ~100% | 8 times | –
RFRRGVRR [L1-13] | – | – | ~100% | – | –
WTWKGRKSLLR [Spep-2] | 750 nM | 100% | ~10% | – | –
SNVKRKRGRCKPYR [L3-37] | – | – | ~100% | 32 times | –
PNGKVRKRIRRRYF [L3-28] | – | 100% | ~100% | 16 times | –
RYAKHRKRQTR [L2-110] | – | 100% | ~100% | 8 times | –
WTWKGRDKLQM [Spep-4] | – | – | – | – | 17%
WTWKGNKQVKF [Spep-10] | – | – | – | – | 47%
